Reference: patent US20260184815A1 (published 2026)

B1: M152-A12 (Fab, V domains shown)
VH: EVQLLESGGGLVQPGGSLRLSCAASGFTFSPYFMGWVRQAPGKGLEWVSGIGPSGGSTTYADSVKGRFTISRDNSKNTLYLQMNSLRAEDTAVYYCAREGPPYSSGWYRGLRQYHFDYWGQGTLVTVSS
VL: DIQMTQSPSSLSASVGDRVTITCRASQSISSYLSWYQQRPGKAPNLLIYAASSLQSGVPSRFSGSGSGTDFTLTISSLQPEDFATYYCQQSISIPRTFGQGTKVEVK
notes: HC as printed runs into CH1
B2: M137-E12 (Fab, V domains shown)
VH: EVQLLESGGGLVQPGGSLRLSCAASGFTFSDYRMQWVRQAPGKGLEWVSVIVPSGGNTMYADSVKGRFTISRDNSKNTLYLQMNSLRAEDTAVYYCARGGPGSSIAARRAPTGYYGMDVWGQGTTVTVSS
VL: QSVLIQPPSVSGIPGQRVTISCSGNNSNFGSNTVTWYQQLPGTAPKLLIYSDSRRPSGVPDRFSGSRSDTSASLAISGLQSEDEAEYHCAAWDDSLNGVFGGGTKLTVL
notes: HC as printed runs into CH1
B3: M27-E05 (Fab, V domains shown)
VH: EVQLLESGGGLVQPGGSLRLSCAASGFTFSWYLMIWVRQAPGKGLEWVSYIYPSGGFTYYADSVKGRFTISRDNSKNTLYLQMNSLRAEDMAVYYCARTEGPLSWGYGMDVWGQGTTVTVSS
VL: not shown
notes: HC as printed runs into CH1
B4: M29-D09 (Fab, V domains shown)
VH: EVQLLESGGGLVQPGGSLRLSCAASGFTFSWYTMVWVRQAPGKGLEWVSYIYPSGGATFYADSVKGRFTISRDNSKNTLYLQMNSLRAEDTAVYYCAMGSYDYIWGFYSDHWGQGTLVTVSS
VL: QSALTQPPTVSVSPGQTARITCSGNKLGDKYVAWYQQKPGQSPMLVIYQDTKRPSRVSERFSGSNSANTATLSISGTQALDEADYYCQAWDSSIVIFGGGTRLTVL
notes: HC as printed runs into CH1; also called 559A-M0029-D09
B5: M41-A11 (Fab, V domains shown)
VH: EVQLLESGGGLVQPGGSLRLSCAASGFTFSHYRMSWVRQAPGKGLEWVSSIYPSGGRTVYADSVKGRFTISRDNSKNTLYLQMNSLRAEDTAVYYCAKDKFEWRLLFRGIGNDAFDIWGQGTMVTVSS
VL: QSVLTQPPSVSVSPGQTASITCSGDKLGDKYTSWYQQRPGQSPVLVIYQDIKRPSGIPERFSGSNSGNTATLTISGTQAMDEADYYCQAWDSPNARVFGSGTKVTVL
notes: HC as printed runs into CH1
B6: M145-D11 (Fab, V domains shown)
VH: EVQLLESGGGLVQPGGSLRLSCAASGFTFSHYRMSWVRQAPGKGLEWVSSIYPSGGRTVYADSVKGRFTISRDNSKNTLYLQMNSLRAEDTAVYYCAKDKFEWRLLFRGIGNDAFDIWGQGTMVTVSS
VL: QSVLTQPPSVSVSPGQTASITCSGDKLGDKYTSWYQQRPGQSPVLVIYQDIKRPSGIPERFSGSNSGNTATLTISGTQAMDEADYYCQAWDSPNARVFGSGTKVTVL
notes: HC as printed runs into CH1; also called 559A-M0145-D11
B7: M29-E09 (Fab, V domains shown)
VH: EVQLLESGGGLVQPGGSLRLSCAASGFTFSWYEMGWVRQAPGKGLEWVSSIYSSGGGTMYADSVKGRFTISRDNSKNTLYLQMNSLRAEDTAVYYCARNPQYSGYDRSLSDGAFDIWGQGTMVTVSS
VL: QYELTQPPSVSVSPGQTATITCSGDNLGNKYNSWYQQKPGQSPLLVIYQDTKRPSAIPERFSGSNSGNTATLTISGTQAMDEADYYCQAWDGNVVFGGGTKLTVL
notes: HC as printed runs into CH1
B8: M146-E12 (Fab, V domains shown)
VH: EVQLLESGGGLVQPGGSLRLSCAASGFTFSRYIMHWVRQAPGKGLEWVSSISPSGGLTSYADSVKGRFTISRDNSKNTLYLQMNSLRAEDTAVYYCAREFENAYHYYYYGMDVWGQGTTVTVSS
VL: DIQMTQSPSSLSASVGDRVTITCRASGDIGNALGWYQQKPGKAPRLLISDASTLQSGVPLRFSGSGSGTEFTLTISSLQPEDFATYYCLQGYNYPRTFGQGTKLEIR
notes: HC as printed runs into CH1
B9: M162-A04 (Fab) (Fab, V domains shown)
VH: EVQLLESGGGLVQPGGSLRLSCAASGFTFSHYIMMWVRQAPGKGLEWVSGIYSSGGITVYADSVKGRFTISRDNSKNTLYLQMNSLRAEDTAVYYCAYRRTGIPRRDAFDIWGQGTMVTVSS
VL: DIQMTQSPSTLSASVGDRVTITCRASQSISSWLAWYQQKPGKAPNLLIYKASTLESGVPSRFSGSGSGTEFTLTISSLQPDDFATYYCQQYNTYWTFGQGTKVEIK
notes: Non-germlined Fab discovered using phage display; HC as printed runs into CH1
B10: M38-F02 (Fab, V domains shown)
VH: EVQLLESGGGLVQPGGSLRLSCAASGFTFSYYMMVWVRQAPGKGLEWVSYIYSSGGHTVYADSVKGRFTISRDNSKNTLYLQMNSLRAEDTAVYYCARDLFLYDFWSKGAFDIWGQGTMVTVSS
VL: QSVLTQPPSVSVSPGQTASITCSGEKLGDKYVSWYQQKPGQSPSLVICEDSRRPSGIPERFSGSNSGNTATLTISGAQPMDEADYYCQAWDSSTAIFGPGTKVTVL
notes: HC as printed runs into CH1
B11: M76-D01 (Fab, V domains shown)
VH: EVQLLESGGGLVQPGGSLRLSCAASGFTFSFYAMHWVRQAPGKGLEWVSGIVPSGGRTHYADSVKGRFTISRDNSKNTLYLQMNSLRAEDTAVYYCATDSSGSPNPLFDYWGQGTLVTVSS
VL: DIVMTQTPPSLPVNPGEPASISCRSSQSLSDDGNTYLDWYLQRPGQSPQLLIHTLSYRASGVPDRFSGSGSGTDFTLKISRVEAEDVGVYYCMQGTHWPPTFGQGTKVEIK
notes: HC as printed runs into CH1 (ends APSPKS as printed)
B12: M142-H08 (Fab) (Fab, V domains shown)
VH: EVQLLESGGGLVQPGGSLRLSCAASGFTFSAYSMIWVRQAPGKGLEWVSYIRPSGGRTTYADSVKGRFTISRDNSKNTLYLQMNSLRAEDTAVYYCARGGLLLWFRELKSNYFDYWGQGTLVTVSS
VL: DIQMTQSPSSLSAFVGDRVTITCRASQPIDNYLNWYHQKPGKAPKLLIYAASRLQSGVPSRLSGSGFGTDFTLTISSLQPEDFGNYYCQQSYTVPYTFGGGTKVEIR
notes: HC as printed runs into CH1
B13: M160-G12 (Fab) (Fab, V domains shown)
VH: EVQLLESGGGLVQPGGSLRLSCAASGFTFSHYLMTWVRQAPGKGLEWVSYISPSGGHTIYADSVKGRFTISRDNSKNTLYLQMNSLRAEDTAVYYCARVARGIAARSRTSYFDYWGQGTLVTVSS
VL: DIQMTQSPSFLSASVGDRVTITCRASQGISSYLAWYQQKPGKAPKLLIYAASTLQSGVPSRFSGSGSGTEFTLTISSLQPEDFATYYCQQLNSYPLTFGGGTKVEIK
notes: HC as printed runs into CH1
B14: M110-C12 (Fab, V domains shown)
VH: EVQLLESGGGLVQPGGSLRLSCAASGFTFSYYEMDWVRQAPGKGLEWVSGISSSGGHTAYADSVKGRFTISRDNSKNTLYLQMNSLRAEDTATYYCARERRSSSRARYYYGMDVWGQGTTVTVSS
VL: DIQMTQSPLSLSVTPGEPASISCRSSLSLLHSNGYNYLDWYVQRPGQSPQLLMYLSSTRASGVPDRFSGSGSGTDFTLEISRVEAEDVGVYYCMQPLETPPTFGGGTKVEIK
notes: HC as printed runs into CH1
B15: M8-A09 (Fab, V domains shown)
VH: EVQLLESGGGLVQPGGSLRLSCAASGFTFSTYFMLWVRQAPGKGLEWVSSIYPSGGNTVYADSVKGRFTISRDNSKNTLYLQMNSLRAEDTAVYYCARAASPVRNYYYYGMDVWGQGTTVTVSS
VL: QCELTQPPSESVSPGQTANITCSGDKLGNKYAYWYQQKPGQSPVLVIYQDNNRPSGIPERFSGSNSGNTATLTISGTQAIDEANYYCQAWDSRTVVFGGGTKLTVL
notes: HC as printed runs into CH1
B16: M6-A06 (Fab, V domains shown)
VH: EVQLLESGGGLVQPGGSLRLSCAASGFTFSLYQMTWVRQAPGKGLEWVSGIWPSGGFTDYADSVKGRFTISRDNSKNTLYLQMNSLRAEDTAVYYCARVSTAVADNDYWGQGTLVTVSS
VL: DIQMTQSPSSLSASVGDSVTISCRASQSISMYLNWYQHKPGKAPKLLIYGTSSLQSGVPSRFSGSGPGGTDFTLTISSLQPEDFATYYCQQSYSAPWTFGQGTKVEIK
notes: HC as printed runs into CH1
B17: M35-G04 (Fab, V domains shown)
VH: EVQLLESGGGLVQPGGSLRLSCAASGFTFSYYHMSWVRQAPGKGLEWVSVISPSGGSTKYADSVKGRFTISRDNSKNTLYLQMNSLRAEDTAVYYCARGGSSDYAWGSYRRPYYFDYWGQGTLVTVSS
VL: DIQMTQSPATLSLSPGERATLSCRASQSVSSYLAWYQQKPGQAPRLLIYDASNRATGIPARFSGSGSGTDFTLTISSLEPEDFAVYYCQQRSNWPRGFTFGPGTKVDIK
notes: HC as printed runs into CH1; also called 559A-M0035-G04
B18: M145-D01 (Fab, V domains shown)
VH: EVQLLESGGGLVQPGGSLRLSCAASGFTFSYYHMSWVRQAPGKGLEWVSVISPSGGSTKYADSVKGRFTISRDNSKNTLYLQMNSLRAEDTAVYYCARGGSSDYAWGSYRRPYYFDYWGQGTLVTVSS
VL: DIQMTQSPATLSLSPGERATLSCRASQSVSSYLAWYQQKPGQAPRLLIYDASNRATGIPARFSGSGSGTDFTLTISSLEPEDFAVYYCQQRSNWPRGFTFGPGTKVDIK
notes: HC as printed runs into CH1
B19: M73-D06 (Fab, V domains shown)
VH: EVQLLESGGGLVQPGGSLRLSCAASGFTFSRYEMYWVRQAPGKGLEWVSSISSSGGPTAYADSVKGRFTISRDNSKNTLYLQMNSLRAEDTAMYYCAKGTPKWELLLRSIYIENAFDIWGQGTMVTVSS
VL: QSELTQPPSASETPGQRVTISCSGSSSNIGSNTVSWFQQLPGSAPRLLIYNDHRRPSGVPDRFSGSKSGTSASLVISGLQSQDEADYYCSAWDDSLNGVVFGGGTKLTVL
notes: HC as printed runs into CH1
B20: M161-C11 (Fab, V domains shown)
VH: EVQLLESGGGLVQPGGSLRLSCAASGFTFSDYAMKWVRQAPGKGLEWVSSISSSGGVTQYADSVKGRFTISRDNSKNTLYLQMNSLRAEDTAVYYCAREEDYSSSWYSRRFDYYYGMDVWGQGTTVTVSS
VL: QSALTQPPSVSVSPGQTASITCSGDKLGDKYVSWYQQRPGQSPVLVIYQDTKRPSGIPERFSGSNSGNTATLTISGTQAVDEADYYCQAWDSSTYVFGGGTKVTVL
notes: HC as printed runs into CH1
B21: M10-F10 (Fab, V domains shown)
VH: EVQLLESGGGLVQPGGSLRLSCAASGFTFSFYNMNWVRQAPGKGLEWVSSISPSGGETNYADSVKGRFTISRDNSKNTLYLQMNSLRAEDTAVYYCARGGGAYRNNWWGGFDIWGLGTMVTVSS
VL: DIQMTQSPSSLSASVGDRVTITCRASQSISVYLNWYQHKPGKAPKLLIYGASNLQFGVPSRFSGSGYGTDFTLTISSLQPEDFATYHCQQTFSLFTFGGGTKVEIK
notes: HC as printed runs into CH1

Molecular target: T1, human plasma kallikrein (human, UniProt P03952 20-390; P03952 391-638)
T1 construct: also called pKal; Human pKal
T1 sequence (P03952 20-390, chain 1 of 2): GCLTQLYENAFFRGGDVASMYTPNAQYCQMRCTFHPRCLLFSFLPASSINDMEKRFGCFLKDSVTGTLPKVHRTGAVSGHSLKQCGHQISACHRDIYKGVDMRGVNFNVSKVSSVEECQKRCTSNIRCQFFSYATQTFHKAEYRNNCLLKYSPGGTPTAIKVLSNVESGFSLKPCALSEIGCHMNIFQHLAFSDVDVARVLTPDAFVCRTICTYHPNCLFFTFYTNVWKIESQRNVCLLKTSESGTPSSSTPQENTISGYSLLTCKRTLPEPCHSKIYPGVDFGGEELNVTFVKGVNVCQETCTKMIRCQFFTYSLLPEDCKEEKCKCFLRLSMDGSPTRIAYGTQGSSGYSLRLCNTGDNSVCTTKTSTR
T1 sequence (P03952 391-638, chain 2 of 2): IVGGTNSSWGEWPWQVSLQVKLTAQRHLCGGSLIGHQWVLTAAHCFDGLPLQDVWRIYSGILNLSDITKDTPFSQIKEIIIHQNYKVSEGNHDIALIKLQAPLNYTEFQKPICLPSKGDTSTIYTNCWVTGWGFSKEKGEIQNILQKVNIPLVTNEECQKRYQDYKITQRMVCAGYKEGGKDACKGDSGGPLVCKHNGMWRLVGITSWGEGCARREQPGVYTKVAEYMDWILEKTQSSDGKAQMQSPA
Experiment: ELISA, biotinylated pKal signal over streptavidin background
Source text: Abbreviations used: “T/B” is the ELISA signal obtained using of the “target” (biotinylated plasma kallikrein) divided by the ELISA signal of the “background” (streptavidin); both of which were coated on microtiter plates, “nd” is not determined. The symbol “q” refers to the amber suppressible stop codon (TAG), which is translated as glutamine (Q) in strains of E. coli such as the TG1 cells that were used to express the Fab fragments.

Row | Binder | ELISA (T/B)
1 | B1 | 19
2 | B2 | 4.5
3 | B3 | 41.3
4 | B4 | 47.5
5 | B5 | 28
6 | B6 | 40
7 | B7 | 28.8
8 | B8 | 49.6
9 | B9 | 11.4
10 | B10 | 33.5
11 | B11 | 11.2
12 | B12 | 29.9
13 | B13 | 38.3
14 | B14 | 2.4
15 | B15 | 5.4
16 | B16 | 11.7
17 | B17 | 11.1
18 | B18 | 6.2
19 | B19 | 4
20 | B20 | 41.8
21 | B21 | 39.2
